These results are taken from paper PMC7112232, “Computational design of substrate selective inhibition” (PLoS Computational Biology, 2020).

Substrate in this data set: NC(=O)[C@@H]1CCCN1C(=O)[C@H](Cc1cnc[nH]1)NC(=O)[C@@H]1CCC(=O)N1
The experiment in a line: RP-HPLC cleavage assay with purified rhPOP, Michaelis-Menten fit (Km). It counts as biochemical, Homo sapiens. Conditions: occupies the S3-S1' sub-pockets.

B1: Prolyl Oligopeptidase (POP) (Homo sapiens) (protein)
chain: MLSLQYPDVYRDETAVQDYHGHKICDPYAWLEDPDSEQTKAFVEAQNKITVPFLEQCPIRGLYKERMTELYDYPKYSCHFKKGKRYFYFYNTGLQNQRVLYVQDSLEGEARVFLDPNILSDDGTVALRGYAFSEDGEYFAYGLSASGSDWVTIKFMKVDGAKELPDVLERVKFSCMAWTHDGKGMFYNSYPQQDGKSDGTETSTNLHQKLYYHVLGTDQSEDILCAEFPDEPKWMGGAELSDDGRYVLLSIREGCDPVNRLWYCDLQQESSGIAGILKWVKLIDNFEGEYDYVTNEGTVFTFKTNRQSPNYRVINIDFRDPEESKWKVLVPEHEKDVLEWIACVRSNFLVLCYLHDVKNILQLHDLTTGALLKTFPLDVGSIVGYSGQKKDTEIFYQFTSFLSPGIIYHCDLTKEELEPRVFREVTVKGIDASDYQTVQIFYPSKDGTKIPMFIVHKKGIKLDGSHPAFLYGYGGFNISITPNYSVSRLIFVRHMGGILAVANIRGGGEYGETWHKGGILANKQNCFDDFQCAAEYLIKEGYTSPKRLTINGGSNGGLLVAACANQRPDLFGCVIAQVGVMDMLKFHKYTIGHAWTTDYGCSDSKQHFEWLVKYSPLHNVKLPEADDIQYPSMLLLTADHDDRVVPLHSLKFIATLQYIVGRSRKQSNPLLIHVDTKAGHGAGKPTAKVIEEVSDMFAFIARCLNVDWIP
notes: recombinant human POP (rhPOP), GST moiety removed
On to B1, for which the Km came out at 690 µM.

As a reminder, the Km is the substrate concentration at which the rate is half of its maximum.
